Experimental findings from paper PMC9758056 (2022) are described below.

The assay addresses Taxol-stabilized microtubules from bovine tubulin, labeled with Alexa Fluor 488 and biotin, tethered to a … (bovine, UniProt Q6B856 1-445, part of the tubulin biotinylated, part labeled with Alexa Fluor 488 (10% biotin-tubulin and 10% Alexa 488-tubulin) | part of the tubulin biotinylated, part labeled with Alexa Fluor 488 (10% …)).

Sequence of Taxol-stabilized microtubules from bovine tubulin, labeled with Alexa Fluor 488 and biotin, tethered to a … (chain, as listed by the source, chain 1 of 2): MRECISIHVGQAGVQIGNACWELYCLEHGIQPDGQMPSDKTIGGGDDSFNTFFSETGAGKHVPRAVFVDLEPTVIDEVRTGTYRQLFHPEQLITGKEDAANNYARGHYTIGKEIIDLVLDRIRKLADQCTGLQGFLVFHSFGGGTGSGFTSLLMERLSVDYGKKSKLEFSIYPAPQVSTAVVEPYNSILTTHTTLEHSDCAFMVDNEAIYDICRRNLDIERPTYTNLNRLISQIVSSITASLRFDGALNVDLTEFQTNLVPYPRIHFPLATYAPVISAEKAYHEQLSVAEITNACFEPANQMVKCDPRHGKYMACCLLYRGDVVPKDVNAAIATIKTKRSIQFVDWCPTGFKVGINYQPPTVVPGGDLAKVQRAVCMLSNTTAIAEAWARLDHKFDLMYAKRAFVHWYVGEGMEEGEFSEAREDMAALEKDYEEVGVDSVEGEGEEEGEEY
Sequence of Taxol-stabilized microtubules from bovine tubulin, labeled with Alexa Fluor 488 and biotin, tethered to a … (Q6B856 whole entry, chain 2 of 2): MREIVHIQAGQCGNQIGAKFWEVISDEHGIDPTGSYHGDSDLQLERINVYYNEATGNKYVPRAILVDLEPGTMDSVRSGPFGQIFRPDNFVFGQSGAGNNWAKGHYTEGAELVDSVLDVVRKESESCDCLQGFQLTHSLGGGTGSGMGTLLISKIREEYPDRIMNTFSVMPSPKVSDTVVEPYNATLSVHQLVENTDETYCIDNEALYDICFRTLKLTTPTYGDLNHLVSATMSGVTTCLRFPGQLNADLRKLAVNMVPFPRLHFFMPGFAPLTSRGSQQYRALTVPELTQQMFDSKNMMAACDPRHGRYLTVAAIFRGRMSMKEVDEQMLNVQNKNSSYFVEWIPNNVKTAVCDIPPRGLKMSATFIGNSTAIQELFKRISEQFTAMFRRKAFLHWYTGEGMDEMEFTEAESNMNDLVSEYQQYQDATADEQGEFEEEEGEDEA

B1: TMR-LRRK2^RCKW (LRRK2^RCKW randomly labeled with BODIPY TMR-X) (domain or fragment)
chain: KKAVPYNRMKLMIVGNTGSGKTTLLQQLMKTKKSDLGMQSATVGIDVKDWPIQIRDKRKRDLVLNVWDFAGREEFYSTHPHFMTQRALYLAVYDLSKGQAEVDAMKPWLFNIKARASSSPVILVGTHLDVSDEKQRKACMSKITKELLNKRGFPAIRDYHFVNATEESDALAKLRKTIINESLNFKIRDQLVVGQLIPDCYVELEKIILSERKNVPIEFPVIDRKRLLQLVRENQLQLDENELPHAVHFLNESGVLLHFQDPALQLSDLYFVEPKWLCKIMAQILTVKVEGCPKHPKGIISRRDVEKFLSKKRKFPKNYMSQYFKLLEKFQIALPIGEEYLLVPSSLSDHRPVIELPHCENSEIIIRLYEMPYFPMGFWSRLINRLLEISPYMLSGRERALRPNRMYWRQGIYLNWSPEAYCLVGSEVLDNHPESFLKITVPSCRKGCILLGQVVDHIDSLMEEWFPGLLEIDICGEGETLLKKWALYSFNDGEEHQKILLDDLMKKAEEGDLLVNPDQPRLTIPISQIAPDLILADLPRNIMLNNDELEFEQAPEFLLGDGSFGSVYRAAYEGEEVAVKIFNKHTSLRLLRQELVVLCHLHHPSLISLLAAGIRPRMLVMELASKGSLDRLLQQDKASLTRTLQHRIALHVADGLRYLHSAMIIYRDLKPHNVLLFTLYPNAAIIAKIADYGIAQYCCRMGIKTSEGTPGFRAPEVARGNVIYNQQADVYSFGLLLYDILTTGGRIVEGLKFPNEFDELEIQGKLPDPVKEYGCAPWPMVEKLIKQCLKENPQERPTSAQVFDILNSAELVCLTRRILLPKNVIVECMVATHHNSRNASIWLGCGHTDRGQLSFLDLNTEGYTSEEVADSRILCLALVHLPVEKESWIVSGTQSGTLLVINTEDGKKRHTLEKMTDSVTCLYCNSFSKQSKQKNFLLVGTADGKLAIFEDKTVKLKGAAPLKILNIGNVSTPLMCLSESTNSTERNVMWGGCGTKIFSFSNDFTIQKLIETRTSQLFSYAAFSDSNIITVVVDTALYIAKQNSPVVEVWDKKTEKLCGLIDCVHFLREVMVKENKESKHKMSYSGRVKTLCLQKNTALWIGTGGGHILLLDLSTRRLIRVIYNFCNSVRVMMTAQLGSLKNVMLVLGYNRKNTEGTQKQKEIQSCLTVWDINLPHEVQNLEKHIEVRKELAEKMRRTSVE
modifications: BODIPY TMR-X on primary amines, randomly labeled (dye added 1:1)
In turn, B1 came in with a Kd of around 40 nM.

One may read the Kd as the equilibrium constant for the complex coming apart. Higher therefore signals lower affinity.
